Source: patent publication EP4782541A1 (Nanjing Probio Biotech Co., Ltd., dated 2026)

Tests used:
[1] = biological target: human ROR1 (on CHO-K1/ROR1 cells and ROR1 tumour cell lines) (human) (UniProt Q01973); experiment: cell-based or functional assay
[2] = biological target: T1, human ROR1 protein (human, UniProt Q01973 30-403, limits assumed); experiment: SPR (Biacore 8K); human ROR1 amine-coupled at 0.05 ug/mL as ligand, antibody as analyte
T1 construct: Recombinant antigen of the SPR assay; also called ROR1 (SPR ligand)
T1 sequence (Q01973 30-403 limits assumed): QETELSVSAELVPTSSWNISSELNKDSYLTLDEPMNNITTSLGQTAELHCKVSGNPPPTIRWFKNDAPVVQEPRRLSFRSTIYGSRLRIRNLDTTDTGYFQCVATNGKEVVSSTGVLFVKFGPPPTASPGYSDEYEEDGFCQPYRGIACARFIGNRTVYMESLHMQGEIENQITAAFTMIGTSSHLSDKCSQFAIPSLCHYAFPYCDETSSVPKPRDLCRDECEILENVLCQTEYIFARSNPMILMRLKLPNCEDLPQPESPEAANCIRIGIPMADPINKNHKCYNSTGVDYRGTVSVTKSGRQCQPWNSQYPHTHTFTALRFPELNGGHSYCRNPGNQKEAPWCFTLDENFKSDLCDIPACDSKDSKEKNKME

[3] = biological target: T1, human ROR1 protein; experiment: SPR (Biacore 8K); human ROR1 amine-coupled at 0.10 ug/mL as ligand, antibody as analyte
[4] = biological target: T1, human ROR1 protein; experiment: SPR (Biacore 8K); human ROR1 amine-coupled at 0.50 ug/mL as ligand, antibody as analyte
[5] = biological target: T1, human ROR1 protein; experiment: SPR (Biacore 8K); human ROR1 amine-coupled at 2.50 ug/mL as ligand, antibody as analyte
[6] = biological target: T1, human ROR1 protein; experiment: SPR (Biacore 8K); human ROR1 amine-coupled at 12.50 ug/mL as ligand, antibody as analyte
[7] = biological target: T1, human ROR1 protein; experiment: SPR (Biacore 8K); human ROR1 amine-coupled at 62.50 ug/mL as ligand, antibody as analyte
[8] = biological target: T2, human CD3 (on Jurkat cells) (human, UniProt P07766 23-207; P09693 23-182; P04234 22-171); experiment: flow cytometry on Jurkat cells expressing human CD3
T2 construct: whole, on cells
T2 sequence (P07766 23-207, chain 1 of 3): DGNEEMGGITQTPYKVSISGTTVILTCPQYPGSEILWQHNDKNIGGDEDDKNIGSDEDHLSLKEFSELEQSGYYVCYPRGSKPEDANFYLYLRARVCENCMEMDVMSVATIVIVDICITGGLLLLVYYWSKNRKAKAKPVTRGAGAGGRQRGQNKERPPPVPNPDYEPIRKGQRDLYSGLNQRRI
T2 sequence (P09693 23-182, chain 2 of 3): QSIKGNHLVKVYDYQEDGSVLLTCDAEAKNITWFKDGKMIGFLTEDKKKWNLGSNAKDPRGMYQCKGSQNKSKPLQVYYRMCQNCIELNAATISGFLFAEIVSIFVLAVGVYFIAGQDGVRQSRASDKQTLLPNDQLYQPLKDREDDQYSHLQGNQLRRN
T2 sequence (P04234 22-171, chain 3 of 3): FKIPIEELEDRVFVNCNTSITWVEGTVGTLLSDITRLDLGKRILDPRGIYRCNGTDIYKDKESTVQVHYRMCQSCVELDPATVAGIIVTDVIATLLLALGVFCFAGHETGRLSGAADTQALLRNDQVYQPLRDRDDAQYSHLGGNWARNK

[9] = biological target: T3, human ROR1 (on CHO-K1/ROR1 cells and ROR1 tumour cell lines) (human, UniProt Q01973 30-937); experiment: flow cytometry on CHO-K1/ROR1 cells overexpressing human ROR1
T3 construct: whole, on cells; also called receptor tyrosine kinase-like orphan receptor 1
T3 sequence (Q01973 30-937): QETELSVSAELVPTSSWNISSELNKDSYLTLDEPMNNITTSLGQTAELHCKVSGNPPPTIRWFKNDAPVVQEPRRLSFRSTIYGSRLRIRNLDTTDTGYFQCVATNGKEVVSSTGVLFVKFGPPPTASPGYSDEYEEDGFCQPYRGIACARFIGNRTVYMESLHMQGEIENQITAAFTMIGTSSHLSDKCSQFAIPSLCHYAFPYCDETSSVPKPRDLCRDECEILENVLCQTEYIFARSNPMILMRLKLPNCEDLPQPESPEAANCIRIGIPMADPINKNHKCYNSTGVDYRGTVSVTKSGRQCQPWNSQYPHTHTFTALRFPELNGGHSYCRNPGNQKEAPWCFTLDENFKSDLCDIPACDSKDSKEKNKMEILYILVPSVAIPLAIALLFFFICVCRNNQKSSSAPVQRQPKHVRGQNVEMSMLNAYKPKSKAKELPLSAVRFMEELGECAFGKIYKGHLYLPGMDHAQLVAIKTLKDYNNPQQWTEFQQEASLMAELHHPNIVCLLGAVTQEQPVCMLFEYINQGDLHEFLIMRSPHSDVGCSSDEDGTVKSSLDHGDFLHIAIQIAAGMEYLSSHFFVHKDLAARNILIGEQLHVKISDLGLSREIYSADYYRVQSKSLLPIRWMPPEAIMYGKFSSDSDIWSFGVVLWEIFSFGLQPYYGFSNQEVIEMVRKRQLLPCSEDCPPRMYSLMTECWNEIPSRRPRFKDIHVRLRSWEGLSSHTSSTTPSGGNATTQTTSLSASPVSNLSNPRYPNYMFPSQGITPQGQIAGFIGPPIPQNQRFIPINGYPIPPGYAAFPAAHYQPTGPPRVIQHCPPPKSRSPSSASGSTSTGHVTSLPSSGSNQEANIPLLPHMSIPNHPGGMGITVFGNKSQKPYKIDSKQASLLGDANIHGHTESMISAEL

human ROR1 (on CHO-K1/ROR1 cells and ROR1 tumour cell lines) (human), sequence (Q01973 30-937): as above

NVG-111 (bispecific antibody)
EC50 of T cell activation based on reporter gene (luciferase), target cells A375 [1]: 32.9 pM | EC50 of T cell activation based on reporter gene (luciferase), target cells Jeko-1 [1]: 35.8 pM | EC50 of T cell activation based on reporter gene (luciferase), target cells MDA-MB-231 [1]: 10 pM | Kd [2]: 2590 pM | koff [2]: 0.00138 s⁻¹ | kon [2]: 532000 M⁻¹ s⁻¹ | Kd [3]: 1820 pM | koff [3]: 0.00113 s⁻¹ | kon [3]: 622000 M⁻¹ s⁻¹ | Kd [4]: 1920 pM | koff [4]: 0.00122 s⁻¹ | kon [4]: 632000 M⁻¹ s⁻¹ | Kd [5]: 1640 pM | koff [5]: 0.00118 s⁻¹ | kon [5]: 723000 M⁻¹ s⁻¹ | Kd [6]: 1490 pM | koff [6]: 0.00109 s⁻¹ | kon [6]: 733000 M⁻¹ s⁻¹ | Kd [7]: 1710 pM | koff [7]: 0.00101 s⁻¹ | kon [7]: 593000 M⁻¹ s⁻¹

B1: BsAb-1 (bispecific antibody, human IgG1, lambda)
chain: EVQLVESGGGLVQPGGSLRLSCAASGFISRFYAMGWYRQAPGKQRELVARISSMGWTYYADSVKGRFTISIDNSKNTLYLQMNSLRAEDTAVYYCNARNLWGQGTLVTVSSDKTHTCPPCPAPESTRGPSVFLFPPKPKDTLMISRTPEVTCVVVDVSHEDPEVKFNWYVDGVEVHNAKTKPREEQYNSTYRVVSVLTVLHQDWLNGKEYKCKVSNKALPAPIEKTISKAKGQPREPQVCTLPPSRDELTKNQVSLSCAVKGFYPSDIAVEWESNGQPENNYKTTPPVLDSDGSFFLVSKLTVDKSRWQQGNVFSCSVMHEALHNHYTQKSLSLSPGK
heavy: EVQLVESGGGLVQPGRSLRLSCAASGFTFNTYAMNWVRQAPGKGLEWVARIRSKYNNYATYYADSVKDRFTISRDDSKSIAYLQMNSLKTEDTAVYYCVRHGNFGNSYVSWFAYWGQGTLVTVSSASTKGPSVFPLAPSSKSTSGGTAALGCLVKDYFPEPVTVSWNSGALTSGVHTFPAVLQSSGLYSLSSVVTVPSSSLGTQTYICNVNHKPSNTKVDKKVEPKSCDKTHTCPPCPAPESTRGPSVFLFPPKPKDTLMISRTPEVTCVVVDVSHEDPEVKFNWYVDGVEVHNAKTKPREEQYNSTYRVVSVLTVLHQDWLNGKEYKCKVSNKALPAPIEKTISKAKGQPREPQVYTLPPCRDELTKNQVSLWCLVKGFYPSDIAVEWESNGQPENNYKTTPPVLDSDGSFFLYSKLTVDKSRWQQGNVFSCSVMHEALHNHYTQKSLSLSPGK
light: QTVVTQEPSLTVSPGGTVTLTCRSSTGAVTTSNYANWVQQKPGQAPRGLIGGTNKRAPGVPARFSGSLLGGKAALTLSGVQPEDEAEYFCALWYSNLWVFGGGTKLTVLGQPKAAPSVTLFPPSSEELQANKATLVCLISDFYPGAVTVAWKADSSPVKAGVETTTPSKQSNNKYAASSYLSLTPEQWKSHRSYSCQVTHEGSTVEKTVAPTECS
notes: human IgG1 Fc with L234S/L235T/G236R; also called BsAb-01
EC50 [8]: 384 pM | EC50 [9]: 287 pM

B2: BsAb-11 (bispecific antibody, human IgG1, lambda)
chain: QVQLVESGGGVVQPGGSLRLSCAASGFVLRVNTVSWYRQAPGKQRELVALITSESNEYYDDSVKGRFTISRDNAKNTIYLHMNSLKPEDTGVYFCNFITTWGQGTQVTVSSDKTHTCPPCPAPESTRGPSVFLFPPKPKDTLMISRTPEVTCVVVDVSHEDPEVKFNWYVDGVEVHNAKTKPREEQYNSTYRVVSVLTVLHQDWLNGKEYKCKVSNKALPAPIEKTISKAKGQPREPQVCTLPPSRDELTKNQVSLSCAVKGFYPSDIAVEWESNGQPENNYKTTPPVLDSDGSFFLVSKLTVDKSRWQQGNVFSCSVMHEALHNHYTQKSLSLSPGK
heavy: QVQLVESGGGVVQPGGSLRLSCAASGFVLRVNTVSWYRQAPGKQRELVALITSESNEYYDDSVKGRFTISRDNAKNTIYLHMNSLKPEDTGVYFCNFITTWGQGTQVTVSSGGGGSGGGGSGGGGSEVQLVESGGGLVQPGRSLRLSCAASGFTFNTYAMNWVRQAPGKGLEWVARIRSKYNNYATYYADSVKDRFTISRDDSKSIAYLQMNSLKTEDTAVYYCVRHGNFGNSYVSWFAYWGQGTLVTVSSASTKGPSVFPLAPSSKSTSGGTAALGCLVKDYFPEPVTVSWNSGALTSGVHTFPAVLQSSGLYSLSSVVTVPSSSLGTQTYICNVNHKPSNTKVDKKVEPKSCDKTHTCPPCPAPESTRGPSVFLFPPKPKDTLMISRTPEVTCVVVDVSHEDPEVKFNWYVDGVEVHNAKTKPREEQYNSTYRVVSVLTVLHQDWLNGKEYKCKVSNKALPAPIEKTISKAKGQPREPQVYTLPPCRDELTKNQVSLWCLVKGFYPSDIAVEWESNGQPENNYKTTPPVLDSDGSFFLYSKLTVDKSRWQQGNVFSCSVMHEALHNHYTQKSLSLSPGK
light: B1 light
EC50 [8]: 4000 pM

B3: BsAb-15 (bispecific antibody, human IgG1, lambda)
chain: EVQLVESGGGLVQPGGSLRLSCAASGRSFSSFQMGWFRQAPGKEREFVAASGWSGGPTYYWDSVIGRFTISTDNSKNTLYLQMNSLRAEDTAVYYCYEDRVLSGRHVRYWGQGTLVTVSSDKTHTCPPCPAPESTRGPSVFLFPPKPKDTLMISRTPEVTCVVVDVSHEDPEVKFNWYVDGVEVHNAKTKPREEQYNSTYRVVSVLTVLHQDWLNGKEYKCKVSNKALPAPIEKTISKAKGQPREPQVCTLPPSRDELTKNQVSLSCAVKGFYPSDIAVEWESNGQPENNYKTTPPVLDSDGSFFLVSKLTVDKSRWQQGNVFSCSVMHEALHNHYTQKSLSLSPGK
heavy: B1 heavy
light: B1 light
EC50 [8]: 743 pM

B4: BsAb-7 (bispecific antibody, human IgG1, lambda)
chain: QVQLVESGGGVVQPGGSLRLSCAASGFVLRVNTVSWYRQAPGKQRELVALITSESNEYYDDSVKGRFTISRDNAKNTIYLHMNSLKPEDTGVYFCNFITTWGQGTQVTVSSGGGGSGGGGSGGGGSQVQLVESGGGVVQPGGSLRLSCAASGFVLRVNTVSWYRQAPGKQRELVALITSESNEYYDDSVKGRFTISRDNAKNTIYLHMNSLKPEDTGVYFCNFITTWGQGTQVTVSSDKTHTCPPCPAPESTRGPSVFLFPPKPKDTLMISRTPEVTCVVVDVSHEDPEVKFNWYVDGVEVHNAKTKPREEQYNSTYRVVSVLTVLHQDWLNGKEYKCKVSNKALPAPIEKTISKAKGQPREPQVCTLPPSRDELTKNQVSLSCAVKGFYPSDIAVEWESNGQPENNYKTTPPVLDSDGSFFLVSKLTVDKSRWQQGNVFSCSVMHEALHNHYTQKSLSLSPGK
heavy: B1 heavy
light: B1 light
notes: also called BsAb-07
EC50 [8]: 526 pM

B5: BsAb-6 (bispecific antibody, human IgG1, lambda)
chain: EVQLVESGGGLVQPGGSLRLSCAASYFISRFYAVGWYRQAPGKQRELVARISSGGWTYYADSVKGRFTISIDNSKNTLYLQMNSLRAEDTAVYYCNARNLWGQGTLVTVSSGGGGSGGGGSGGGGSEVQLVESGGGLVQPGGSLRLSCAASYFISRFYAVGWYRQAPGKQRELVARISSGGWTYYADSVKGRFTISIDNSKNTLYLQMNSLRAEDTAVYYCNARNLWGQGTLVTVSSDKTHTCPPCPAPESTRGPSVFLFPPKPKDTLMISRTPEVTCVVVDVSHEDPEVKFNWYVDGVEVHNAKTKPREEQYNSTYRVVSVLTVLHQDWLNGKEYKCKVSNKALPAPIEKTISKAKGQPREPQVCTLPPSRDELTKNQVSLSCAVKGFYPSDIAVEWESNGQPENNYKTTPPVLDSDGSFFLVSKLTVDKSRWQQGNVFSCSVMHEALHNHYTQKSLSLSPGK
heavy: B1 heavy
light: B1 light
notes: also called BsAb-06
EC50 [8]: 1180 pM

B6: BsAb-8 (bispecific antibody, human IgG1, lambda)
chain: EVQLVESGGGLVQPGGSLRLSCAASGRSFSSFQMGWFRQAPGKEREFVAASGWSGGPTYYWDSVIGRFTISTDNSKNTLYLQMNSLRAEDTAVYYCYEDRVLSGRPVRYWGQGTLVTVSSGGGGSGGGGSGGGGSEVQLVESGGGLVQPGGSLRLSCAASGRSFSSFQMGWFRQAPGKEREFVAASGWSGGPTYYWDSVIGRFTISTDNSKNTLYLQMNSLRAEDTAVYYCYEDRVLSGRPVRYWGQGTLVTVSSDKTHTCPPCPAPESTRGPSVFLFPPKPKDTLMISRTPEVTCVVVDVSHEDPEVKFNWYVDGVEVHNAKTKPREEQYNSTYRVVSVLTVLHQDWLNGKEYKCKVSNKALPAPIEKTISKAKGQPREPQVCTLPPSRDELTKNQVSLSCAVKGFYPSDIAVEWESNGQPENNYKTTPPVLDSDGSFFLVSKLTVDKSRWQQGNVFSCSVMHEALHNHYTQKSLSLSPGK
heavy: B1 heavy
light: B1 light
notes: also called BsAb-08
EC50 [8]: 838 pM | EC50 [9]: 280 pM
